Experimental data reported in publication PMC5694763.

Biological target: dCas9 (SpCas9 D10A/H840A) D10A;H840A (Streptococcus pyogenes) (UniProt Q99ZW2)
Assay: SPR
Details: SPR: PBS, 0.005% Tween-20, 25 C, BLI: PBS, 0.005% Tween-20, 1 mM MgCl2, 50 ug/ml heparin, SwitchSENSE: 20 mM Tris pH 7.4, 100 mM KCl, 5 mM MgCl2, 0.01% …

| Substance | Kd (DNA with 7 RNA residues (1,15,16,19,22,23,24)) | Kd (dCas9 immobilised, 1.2-100 nM titration) | Kd (dCas9 immobilised, kinetic 1:1 fit) |
| --- | --- | --- | --- |
| AGCACTGCACGCCGUAGGUCGUUUTAGAGCTATGCTGTTTTG [GFP cr1 crHyb with tracrRNA] | < 1 nM |  |  |
| tracrRNA (88 nt) |  | 6.2 nM | 0.308 nM |
